We go through one substance from article PMC12117093.

The test concerns the target 5-IAF-labeled p53-TAD A63C mutant (UniProt P04637). The experiment in a line: fluorescence polarisation. For orientation: Polarisation of emitted light reports the rotation of a fluorescent probe.

As a reminder, the Kd is the equilibrium constant for the complex coming apart. The substance “FOXO4 Forkhead DNA-binding domain (FOXO4-DBD, residues 86-211) (from UniProt P98177 86-211) (domain or fragment)” returned a Kd of 42 µM.
